Test results from patent US20160331821A1 (AGENUS, published 2016).
Square brackets hold non-standard residues; d marks the D form. Ends that are not written are not given here. pS = N[C@@H](COP(=O)(O)O)C(=O)O

B1: RVA{pSer}PTSGVFFRKNLLRLTG (IRS-2 antigen phosphopeptide epitope with C-terminal FFRK linker and high affinity HSP binding sequence) (peptide)
peptide: RVA[pS]PTSGVFFRKNLLRLTG
B2: NLLRLTGFFRKRVA{pSer}PTSGV (IRS-2 antigen phosphopeptide epitope with N-terminal high affinity HSP binding sequence and FFRK linker) (peptide)
peptide: NLLRLTGFFRKRVA[pS]PTSGV
B3: NLLRLTGFFRKGLLG{pSer}PVRA (CDC25 antigen phosphopeptide epitope with N-terminal high affinity HSP binding sequence and FFRK linker) (peptide)
peptide: NLLRLTGFFRKGLLG[pS]PVRA
B4: chicken ovalbumin peptide SIINFEKL fused at its N-terminus via the linker FFRK to the high affinity Hsc70 binding sequence NLLRLTG (NLLRLTGFFRKSIINFEKL) (peptide)
peptide: NLLRLTGFFRKSIINFEKL
B5: GLLG{pSer}PVRAFFRKNLLRLTG (CDC25 antigen phosphopeptide epitope with C-terminal FFRK linker and high affinity HSP binding sequence) (peptide)
peptide: GLLG[pS]PVRAFFRKNLLRLTG

Columns and labels:
[1] = target: T1, recombinant human Hsc70 (Genbank Accession No. P11142.1) (human, UniProt P11142 1-646, limits assumed); test: size exclusion chromatography after incubating peptide with Hsc70 in PBS, 37 C, 1 h, 4:1 molar excess peptide:Hsc70
T1 construct: also called rhHsc70; rh-Hsc70
Experimental: Four peptides (Table 9) containing a phosphorylated serine residue were synthesized to 95% purity (GenScript, Cambridge, Mass.). […] These peptides were individually incubated with Hsc70 in PBS at 37° C. for 1 hour at a 4:1 molar excess (peptide:Hsc70) to form non-covalent Hsc70-peptide complexes. After incubation, the complexes were analyzed by SEC to quantify the proportion of Hsc70 molecules loaded with peptide.

[2] = target: T2, recombinant human Hsc70 (Genbank Accession No. P11142.1) (Biomay AG) (human, UniProt P11142 1-646, limits assumed); test: size exclusion chromatography; Hsc70:peptide molar ratio 1:2, same result at 1:5
T2 construct: Resolves on SEC as a monomeric and an oligomeric form; also called rhHsc70; rh-Hsc70
Experimental: Standard size exclusion chromatography was carried out using 7 μM of recombinant human Hsc70 (Genbank Accession No. P11142.1) (Biomay AG) in a reaction buffer containing 20 mM HEPES and 200 mM KCL in a final volume of 50 μl. Reactions were incubated at 37° C. for 1 or 2 hours and centrifuged 2 min at 13000 RPM. Reaction products (10 μg) were resolved on a TSKgel SuperSW3000, 4 μm particle size, 25 nm pore size gel filtration chromatography column (Tosoh Bioscience). […] The percentage of Hsc70 complexed with peptide in each reaction mixture was calculated by measuring the surface area of the appropriate peak.
The comparative effect of placing the high affinity Hsc70 binding sequence at the N- and C-terminus of the ovalbumin peptide, linked via the FFRK (SEQ ID NO:447) linker in both cases, was also tested. […] The sequence of the test peptide with the C-terminal high affinity Hsc70 binding sequence was […] (SEQ ID NO:449), and the sequence of the test peptide with N-terminal high affinity Hsc70 binding sequence was […] (SEQ ID NO:450).

T1 sequence (P11142 whole entry, one chain of several): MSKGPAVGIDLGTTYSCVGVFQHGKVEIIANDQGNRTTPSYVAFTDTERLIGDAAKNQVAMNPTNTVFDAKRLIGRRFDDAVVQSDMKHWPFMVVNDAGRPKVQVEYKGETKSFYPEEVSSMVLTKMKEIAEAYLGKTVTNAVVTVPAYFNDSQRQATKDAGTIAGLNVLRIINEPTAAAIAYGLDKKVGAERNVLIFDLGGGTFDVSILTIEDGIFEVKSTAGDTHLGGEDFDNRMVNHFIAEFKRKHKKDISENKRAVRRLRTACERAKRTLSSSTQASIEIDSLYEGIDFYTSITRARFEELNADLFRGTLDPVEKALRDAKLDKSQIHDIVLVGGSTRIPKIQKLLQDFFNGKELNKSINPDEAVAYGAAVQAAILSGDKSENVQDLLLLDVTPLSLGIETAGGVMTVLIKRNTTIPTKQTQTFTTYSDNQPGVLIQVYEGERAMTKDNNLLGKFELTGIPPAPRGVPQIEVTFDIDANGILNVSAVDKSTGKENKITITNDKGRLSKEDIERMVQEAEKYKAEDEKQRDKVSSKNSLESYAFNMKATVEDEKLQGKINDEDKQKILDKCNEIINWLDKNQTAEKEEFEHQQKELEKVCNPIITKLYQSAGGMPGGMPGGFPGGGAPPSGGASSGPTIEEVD
T2 sequence (P11142 whole entry, one chain of several): as above

| Percentage of Hsc70 loaded with peptide [1] | binding result [2] | Binder |
| --- | --- | --- |
| 75% | – | B1 |
| 34% | – | B2 |
| 41% | – | B3 |
| – | binds | B4 |
| 74% | – | B5 |
